Experimental data: patent EP3016671B1, “ACTIVELY T[…] PROTEASE-RESISTANT PEPTIDES AS BBB SHUTTLES AND SHUTTLE-CARGO CONSTRUCTS” (Universitat de Barcelona, priority 2013, dated 2015)
Positions of bridges follow the written chain, without caps; N, C: chain ends. Non-standard residues stand in square brackets, D forms with d. Residues, ends and D or L forms follow the SMILES beside them. *: point of attachment. X1 = CCN(CC)c1ccc2c(-c3ccc(S(=O)(=O)*)cc3S(=O)(=O)[O-])c3ccc(=[N+](CC)CC)cc-3oc2c1; Biotin = O=C1N[C@H]2[C@H](CS[C@H]2CCCCC(=O)*)N1; Dopa = N[C@@H](Cc1ccc(O)c(O)c1)C(=O)O; Dap = NC[C@H](N)C(=O)O

Key:
[1] = system: bovine brain endothelial cells; assay: Transport across the BBB, in vitro bovine cell assay (co-culture, transwell); conditions: bovine cell model; for Transport (%) (2h) / Papp (x 10^6) cm/s: 37 °C, Ringer-HEPES pH 7.4, 200 µM (Example 21: 1.75 µM), 2 h; for detection of the cargo alone in the acceptor compartments by MALDI-TOF MS: after the 2 h assay, cargo without shuttle; for Papp (x 10^6) cm/s: triplicate
Description: (§1) The evaluation method chosen to test the compounds of formula (I) and (II) of the invention was a cell-based assay consisting of a co-culture of brain endothelial cells and astrocytes, which allows to evaluate or to predict the transport of compounds through the BBB. The co-culture method used was described by Gaillard and de Boer in 2008 (Gaillard, PJ et al. "2B-Trans technology: targeted drug delivery across the blood-brain barrier" Methods Mol Biol 2008, vol. 437 pp. 161-175) and consists in seeding of rat astrocytes in a side of a polycarbonate filter (transwell) and bovine brain endothelial cells on the other side of the filter. Under these conditions endothelial cells are able to reach the confluence mimicking the BBB. […] Is commonly used model for permeation studies and toxicity of compounds across the BBB.
(§2) The co-culture assay was used to determine the capacity of the constructs cargo-shuttle to cross the BBB. The apparent permeability of the compounds was measured in triplicate at a concentration of 200 µ M for Examples 1, 2, 3, 5, 10, 13, 15, 16, 17 and 19 and at a concentration of 1.75 µM for Example 21. All the assays were performed with transendothelial electrical resistance values equal or higher than 100 Ω · cm^2 and were carried out in the presence of lucifer yellow to assess the integrity of the cell membrane during the test. The permeability tests were performed in Ringer-HEPES buffer at pH 7.4. The compound of interest was dissolved in the buffer to the desired concentration.
(§3) Once the endothelial cells were confluent on the filters (transwells) these were washed with Ringer-HEPES buffer. The acceptor well was filled with 800 µ L of Ringer-HEPES buffer and the donor well with 200 µL of the solution of the compound to be studied. The system was incubated at 37 °C and 5% CO2 for 2 h. After that time the content of the acceptor and donor compartments were analyzed by HPLC-UV, direct ELISA or fluorescence (depending on cargo anchored to the shuttle). […] The apparent permeability was calculated using the following equation: Papp = (dQ/dt) * (1/A) * (1/CO) (cm/s), where (dQ/dt) is the amount of compound present in the compartment acceptor function of time (nmol/s). A is the area of the filter(cm2) and CO is the initial concentration of the compound applied in the donor compartment (nmol/mL).

[2] = as above; conditions: pH 7.4; for Papp at 2 h: bovine
Description: as §1, §2, §3

[3] = Stability of the shuttles in human serum; format: in vitro ADME; conditions: HBSS, 37 °C, 90% human serum
Protocol: Regarding to the stability study in human serum of the BBB-shuttle (examples 1, 2, 3 and 5), the peptides were incubated at a concentration of 400 µM in buffer HBSS at 37 °C in the presence of 90% human serum. At a range of times, 100 µL aliquots were collected to which methanol was added in order to precipitate the serum proteins. Samples were centrifuged, filtered and analyzed by HPLC-UV and MALDI-TOF MS to determine the degree of degradation of the BBB-shuttle. […] The half life of the derivative bearing a single disulfide bond was 3 h (examples 2), whereas that of the linear version was no more than 8 min.

[4] = system: human endothelial cells derived from hematopoietic stem cells; assay: Transport across the BBB, in vitro human cell assay (co-culture, transwell); format: in vitro ADME; conditions: human cell model, 37 °C, 25 nM Examples 22 and 23, 30 nM Example 24, 5 nM Example 25; for Transport (%) (2h): Ringer-HEPES pH 7.4, 200 µM peptides
Protocol: (§4) Due to the great interest to know whether the cargo-BBB shuttle conjugates would be transported across human brain endothelial cells, some of the most relevant cargoes for therapy and diagnosis were assayed in a novel human-based BBB cell model. In this case, the co-culture method used was described by Cecchelli et al. (Cecchelli et al. PloS One. 2014. vol9. pp. e99733) and consists in seeding bovine pericytes in the bottom of a 12-well plate and human endothelial cells derived from hematopoietic stem cells on a transwell filter.
(§5) The compound of interest was disolved or buffer-exhanged and diluted to the desired concentration.
(§6) Cetuximab and cetuximab conjugates were radiolabelled to be assayed in the cell model. Pierce^(R) iodination beads were used following the instructions provided by the manufacturer.
(§7) The apparent permeability was calculated using the same equation as for the bovine cell model.

[5] = as above; format: in vitro ADME; conditions: human cell model, 37 °C, Ringer-HEPES pH 7.4, 200 µM peptides, 25 nM Examples 22 and 23, 30 nM Example 24, 5 nM Example 25, read-out: Papp (x 10^6)
Protocol: as §4, §5, §6, §7

CCN(CC)c1ccc2c(-c3ccc(S(=O)(=O)NCC(=O)N[C@H]4CSSC[C@@H]5NC(=O)[C@H](CC(C)C)NC(=O)[C@H](C)NC(=O)[C@H]([C@@H](C)O)NC(=O)[C@H](CCC(=O)O)NC(=O)[C@@H]6CCCN6C(=O)[C@H](C)NC(=O)[C@H](CCCCN)NC(=O)[C@H](CSSC[C@@H](C(=O)N[C@@H](Cc6c[nH]cn6)C(N)=O)NC(=O)[C@H](C)NC(=O)[C@H](C)NC(=O)[C@H](C)NC5=O)NC(=O)[C@H](CC(N)=O)NC4=O)cc3S(=O)(=O)[O-])c3ccc(=[N+](CC)CC)cc-3oc2c1 [Example 13, sulforhodamine b-Gly-Cys-Asn-Cys-Lys-Ala-Pro-Glu-Thr-Ala-Leu-Cys-Ala-Ala-Ala-Cys-His-NH2] (X1-GCNCKAPETALCAAACH-NH2; disulfide 2-12, 4-16)
Transport (%) (2h) [1]: 2.4±0.4%
Papp [2]: 2 ± 0.3 ×10⁻⁶ cm/s

CCN(CC)c1ccc2c(-c3ccc(S(=O)(=O)O)cc3S(=O)(=O)[O-])c3ccc(=[N+](CC)CC)cc-3oc2c1 [sulforhodamine b]
detection of the cargo alone in the acceptor compartments by MALDI-TOF MS [1]: not detected

H-LPFFD-NH2 [H-Leu-Pro-Phe-Phe-Asp-NH2, reference compound]
detection of the cargo alone in the acceptor compartments by MALDI-TOF MS [1]: not detected

H-KAPETAL-NH2 [Example 5, H-Lys-Ala-Pro-Glu-Thr-Ala-Leu-NH2]
half-life at 400 µM [3]: ≤ 8 min
Transport (%) (2h) [1]: 2.3±0.8%
Papp at 2 h [2]: 2 ± 0.6 ×10⁻⁶ cm/s

5(6)-carboxyfluorescein
detection of the cargo alone in the acceptor compartments by MALDI-TOF MS [1]: not detected

CC(C)C[C@@H]1NC(=O)[C@H](C)NC(=O)[C@H]([C@@H](C)O)NC(=O)[C@H](CCC(=O)O)NC(=O)[C@@H]2CCCN2C(=O)[C@H](C)NC(=O)[C@H](CCCCN)NC(=O)[C@@H]2CSSC[C@@H](C(=O)N[C@@H](Cc3c[nH]cn3)C(N)=O)NC(=O)[C@H](C)NC(=O)[C@H](C)NC(=O)[C@H](C)NC(=O)[C@H](CSSC[C@H](NC(=O)CNC(=O)[C@H](CC(=O)O)NC(=O)[C@H](Cc3ccccc3)NC(=O)[C@H](Cc3ccccc3)NC(=O)[C@@H]3CCCN3C(=O)[C@@H](N)CC(C)C)C(=O)N[C@@H](CC(N)=O)C(=O)N2)NC1=O [Example 19] (H-LPFFDGCNCKAPETALCAAACH-NH2; disulfide 7-17, 9-21)
Transport (%) (2h) [1]: 1.8±0.5%
Papp at 2 h [2]: 1.5 ± 0.4 ×10⁻⁶ cm/s

Quantum dot-PEG-NH-V1-Dap-Lys-Ala-Pro-Glu-Thr-Ala-Leu-Asp-NH2 [Example 24]
Transport (%) (2h) [4]: 0.23±0.09%

CC(C)C[C@@H]1NC(=O)[C@H](C)NC(=O)[C@H]([C@@H](C)O)NC(=O)[C@H](CCC(=O)O)NC(=O)[C@@H]2CCCN2C(=O)[C@H](C)NC(=O)[C@H](CCCCN)NC(=O)[C@@H](NC(=O)[C@@H](N)Cc2ccc(O)c(O)c2)CNC(=O)C[C@@H](C(N)=O)NC1=O [Example 18, L-Dopa-Dap-Lys-Ala-Pro-Glu-Thr-Ala-Leu-Asp-NH2] (H-[Dopa][Dap]KAPETALD-NH2; lactam 2-10)
Transport (%) (2h) [4]: 6.6±2.1%
Papp at 2 h [5]: 4 ± 1.3 ×10⁻⁶ cm/s

CC(C)C[C@@H]1NC(=O)[C@H](C)NC(=O)[C@H]([C@@H](C)O)NC(=O)[C@H](CCC(=O)O)NC(=O)[C@@H]2CCCN2C(=O)[C@H](C)NC(=O)[C@H](CCCCN)NC(=O)[C@@H]2CSSC[C@@H](C(=O)N[C@@H](Cc3c[nH]cn3)C(N)=O)NC(=O)[C@H](C)NC(=O)[C@H](C)NC(=O)[C@H](C)NC(=O)[C@H](CSSC[C@H](NC(=O)[C@@H](N)Cc3ccc(O)c(O)c3)C(=O)N[C@@H](CC(N)=O)C(=O)N2)NC1=O [Example 16, L-Dopa-Cys-Asn-Cys-Lys-Ala-Pro-Glu-Thr-Ala-Leu-Cys-Ala-Ala-Ala-Cys-His-NH2] (H-[Dopa]CNCKAPETALCAAACH-NH2; disulfide 2-12, 4-16)
Transport (%) (2h) [1]: 3.1±0.3%
Papp at 2 h [2]: 2.6 ± 0.3 ×10⁻⁶ cm/s

Gold nanoparticle-Cys-Dap-Lys-Ala-Pro-Glu-Thr-Ala-Leu-Asp-NH2 [Example 25]
Transport (%) (2h) [4]: 0.034%

O=C(O)CCCC[C@@H]1SC[C@@H]2NC(=O)N[C@@H]21 [biotin]
detection of the cargo alone in the acceptor compartments by MALDI-TOF MS [1]: not detected

Biotin-CNCKAPETALCAAACH-NH2 (cysteine pairing not given here) [Example 15]
Transport (%) (2h) [1]: 1.9±0.8%

H-Cys-Lys-Ala-Pro-Glu-Thr-Ala-Leu-Cys-NH2 (H-CKAPETALC-NH2; cysteine pairing not given here) [Example 4]
Transport (%) (2h) [4]: 9.9±0.6%
Papp (x 10^6) cm/s ([4]; 2 h, Ringer-HEPES pH 7.4, 200 µM peptides): 6.1±0.4 (x 10^6) cm/s

Lysozyme-V3-Cys-Asn-Cys-Lys-Ala-Pro-Glu-Thr-Ala-Leu-Cys-Ala-Ala-Ala-Cys-His-NH2 [Example 21]
Transport (%) (2h) [1]: 0.08±0.03%
Papp (x 10^6) cm/s [1]: 0.07±0.03 (x 10^6) cm/s

N[C@@H](Cc1ccc(O)c(O)c1)C(=O)O [L-dopa]
detection of the cargo alone in the acceptor compartments by MALDI-TOF MS [1]: not detected

5(6)-Carboxyfluorescein-Cys-Asn-Cys-Lys-Ala-Pro-Glu-Thr-Ala-Leu-Cys-Ala-Ala-Ala-Cys-His-NH2 ({5(6)‑carboxyfluorescein}-CNCKAPETALCAAACH-NH2; disulfide 1-11, 3-15) [Example 10]
Transport (%) (2h) [1]: 3.7±1.8%
Papp (x 10^6) cm/s [1]: 3.1±1.5 (x 10^6) cm/s

CC(C)C[C@@H]1NC(=O)[C@H](C)NC(=O)[C@H]([C@@H](C)O)NC(=O)[C@H](CCC(=O)O)NC(=O)[C@@H]2CCCN2C(=O)[C@H](C)NC(=O)[C@H](CCCCN)NC(=O)[C@@H](NC(=O)[C@@H](N)Cc2ccc(O)c(O)c2)CSSC[C@@H](C(N)=O)NC1=O [Example 17, L-Dopa-Cys-Lys-Ala-Pro-Glu-Thr-Ala-Leu-Cys-NH2] (H-[Dopa]CKAPETALC-NH2; disulfide 2-10)
Transport (%) (2h) [1]: 2.9%
Papp at 2 h [2]: 2.4 ×10⁻⁶ cm/s

CC(C)C[C@@H]1NC(=O)[C@H](C)NC(=O)[C@H]([C@@H](C)O)NC(=O)[C@H](CCC(=O)O)NC(=O)[C@@H]2CCCN2C(=O)[C@H](C)NC(=O)[C@H](CCCCN)NC(=O)[C@@H](N)CNC(=O)C[C@@H](C(N)=O)NC1=O [Example 3, H-Dap-Lys-Ala-Pro-Glu-Thr-Ala-Leu-Asp-NH2] (H-[Dap]KAPETALD-NH2; lactam 1-9)
Transport (%) (2h) [4]: 10.9±1.1%
degradation in human serum ([3]; 400 µM, 24 h): No degradation
Transport (%) (2h) [1]: 6.0±0.7%
Papp at 2 h [2]: 5.1 ± 0.6 ×10⁻⁶ cm/s

H-Cys-Lys-Ala-Pro-Glu-Thr-Ala-Leu-Cys-NH2 (H-CKAPETALC-NH2; cysteine pairing not given here) [Example 2]
half life in human serum ([3]; 400 µM): 3 h
Transport (%) (2h) [1]: 3.1±1.0%
